Tests used:
Assay in all cases: purified protein
purified protein [1] = substrate: N=C(N)NCCCCN; details: 100 μM p-coumaroyl-CoA, 50 mM Tris-HCl pH 7.5, room temperature, apparent Km, acyl-acceptor
purified protein [2] = substrate: COc1cc(/C=C/C(=O)SCCNC(=O)CCNC(=O)[C@H](O)C(C)(C)COP(=O)(O)OP(=O)(O)OC[C@H]2O[C@@H](n3cnc4c(N)ncnc43)[C@H](O)[C@@H]2OP(=O)(O)O)ccc1O; details: 100 μM agmatine sulphate, 50 mM Tris-HCl pH 7.5, room temperature, apparent Km, acyl-donor
purified protein [3] = substrate: CC(C)(COP(=O)(O)OP(=O)(O)OC[C@H]1O[C@@H](n2cnc3c(N)ncnc32)[C@H](O)[C@@H]1OP(=O)(O)O)[C@@H](O)C(=O)NCCC(=O)NCCSC(=O)/C=C/c1ccc(O)cc1; details: 100 μM agmatine sulphate, 50 mM Tris-HCl pH 7.5, room temperature, apparent Km, acyl-donor
purified protein [4] = substrate: NCCCCN; details: 100 μM p-coumaroyl-CoA, 50 mM Tris-HCl pH 7.5, room temperature, apparent Km, acyl-acceptor

B1: HvACT1 (agmatine coumaroyltransferase, ACT) (Hordeum vulgare) (protein)
chain: MKITVHSSKAVKPEYGACGLAPGCTADVVPLTVLDKANFDTYISVIYAFHAPAPPNAVLEAGLGRALVDYREWAGRLGVDASGGRAILLNDAGARFVEATADVALDSVMPLKPTSEVLSLHPSGDDGPEELMLIQVTRFACGSLVVGFTTQHIVSDGRSTGNFFVAWSQATRGAAIDPVPVHDRASFFHPREPLHVEYEHRGVEFKPCEKAHDVVCGADGDEDEVVVNKVHFSREFISKLKAHASAGAPRPCSTLQCVVAHLWRSMTMARGLDGGETTSVAIAVDGRARMSPQVPDGYTGNVILWARPTTTAGELVTRPVKHAVELISREVARINDGYFKSFIDFANSGAVEKERLVATADAADMVLSPNIEVDSWLRIPFYDMDFGGGRPFFFMPSYLPVEGLLILLPSFLGDGSVDAYVPLFSRDMNTFKNCCYSLD
In the case of B1, the Km (purified protein [1]) is reported as 1.7 ± 0.13 µM, the kcat (purified protein [1]) is reported as 38 s⁻¹ and the kcat/Km (purified protein [1]) is reported as 2.2e+07 M⁻¹ s⁻¹. It also gave a Km (purified protein [2]) of 2.0 ± 0.14 µM, a kcat (purified protein [2]) of 18 s⁻¹ and a kcat/Km (purified protein [2]) of 9e+06 M⁻¹ s⁻¹. It also gave a Km (purified protein [3]) of 1.1 ± 0.12 µM, a kcat (purified protein [3]) of 39 s⁻¹ and a kcat/Km (purified protein [3]) of 3.5e+07 M⁻¹ s⁻¹. The Km (purified protein [4]) was 7,200 ± 530 μM, the kcat (purified protein [4]) was 4.7 s⁻¹ and the kcat/Km (purified protein [4]) was 650 M⁻¹ s⁻¹.

— article PMC6123407
